Source: the RNAGym collection of RNA variant scans (doi:10.1073/pnas.2313332121)
Variants at the floor of the assay were thinned out.

B1: TPR 5TU (parent)
chain: GGAUCUUCUCGAUCUAACAAAAAAGACAAAUCUGCCACAAAGCUUGAGAGCAUCUUCGGAUGCAGAGGCGGCAGCCUUCGGUGGCGCGAUAGCGCCAACGUUCUCAACUAUGACACGCAAAACGCGUGCUCCGUUGAAUGGAGUUUAUCAUG

Variants of: B1
Assay: polymerase ribozyme fitness, log enrichment relative to wild type (log ratio); higher = more active; in vitro selection for triplet polymerase activity
How it was run: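 Input and output libraries were sequenced on Illumina after a single in vitro selection round, run in triplicate on PCR-built, transcribed mutant libraries of each subunit of a heterodimeric triplet polymerase ribozyme. Selection annealed libraries to a biotinylated primer, the partner subunit and triplets, incubated them frozen at −7 °C, then gel-excised extended constructs for streptavidin-bead capture and RT-PCR. Genotypes with ≥10 input reads and ≥1 read per output were kept. Fitness is the logarithm, taken in base 2, of genotype enrichment divided by wild-type enrichment, using inverse-variance-weighted replicate averages.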

| Variant | polymerase ribozyme fitness (log ratio) |
| --- | --- |
| C54A C79A G100A | ≤ -4.2 |
| C54G U55A A89U C118G A142C | -3.87 |
| C54G C96U C123G | -1.53 |
| C54A C76G A89U G92U U130G C149A U151A | ≤ -4.2 |
| U53G C93A C103G | ≤ -4.2 |
| U53C G83C C116G | -3.05 |
| C54G U55A G70U G81C C87U G94C C96A C105A A120C | ≤ -4.2 |
| C54A G67A G70C C72G A73C G74A C75G C87G C116G | ≤ -4.2 |
| U53G G84A | -2.52 |
| C54A C85G U102G | ≤ -4.2 |
| U53G G62C C85U U109C | ≤ -4.2 |
| C54U C72U | -0.468 |
| U53A G62A G86U | -2.24 |
| C54G C87G C103A C129G C132U | ≤ -4.2 |
| C54A U148C | -3.69 |
| C54A U56G A110U U145G | ≤ -4.2 |
| C54A A89U G92C A121U | -3 |
| C54G G68C G80A G94U A98G | ≤ -4.2 |
| C54A G59C G84A | -0.321 |
| U53C U77C | ≤ -4.2 |
| U53A G58U C95A U144A C149A | ≤ -4.2 |
| U53G A113C G133A | ≤ -4.2 |
| C54U C57G G84U C85U C132U | -3.94 |
| C54G G80U C103A | ≤ -4.2 |

| Variant | polymerase ribozyme fitness (log ratio) |
| --- | --- |
| C54A G94U A97C C125G | -2.89 |
| U53A G58C A73U C95A | ≤ -4.2 |
| C54A C57G U90G U139A G140U U146A | ≤ -4.2 |
| C54U A64U G83A C85A | ≤ -4.2 |
| U53A G92U A107U G136U | ≤ -4.2 |
| C54G C114U G143C | -4.16 |
| C54U A150G | -0.995 |
| U53A G58C A150U | 0.575 |
| U53A C95U | -0.368 |
| U53A G143C | -2.05 |
| U53A U55G G65C C85G C87U C103U C131A | ≤ -4.2 |
| U53G U55A U78A C93U A142C U148C | ≤ -4.2 |
| C54A U56A C93U A120G G126U | -2.38 |
| C54A C96G C103U C116A G136U | -4.12 |
| C54U A115G | -3.13 |
| C54A C57G | -3 |
| U53A G62C C93A C118G G133A | ≤ -4.2 |
| C54A | -1.06 |
| C54G | -1.45 |
| C54U | -0.314 |
| C54A C85G C95G C114A U134G | ≤ -4.2 |
| U53A G140C | -3.65 |
| C54A U55A C103G | ≤ -4.2 |
| C54A G141A | -0.156 |

| Variant | polymerase ribozyme fitness (log ratio) |
| --- | --- |
| U53G C96A U104G | -3.96 |
| C54A C118A | -1.5 |
| U53A G58A G80A G81A C87U | -2.31 |
| U53A G59C C76G C85U A89C A97C A107U G117U G133A U139G | ≤ -4.2 |
| C54U C57A | -0.253 |
| C54G C76A A89C A98U A115U U151A | ≤ -4.2 |
| U53A C103G | -3.95 |
| C54U A89G C95A U148G | -4.18 |
| C54G G94U C123U G133C | -2.38 |
| U53G C54U C96U A98G G133C G141U | -4.03 |
| C54G A142U | -1.98 |
| U53G U55A U148C | ≤ -4.2 |
| C54G C103G | ≤ -4.2 |
| U53A G117A | -0.303 |
| C54G C95G G133A | ≤ -4.2 |
| C54A G65C C93G | ≤ -4.2 |
| U53A U56A G58A C85U | 0.824 |
| U53A G88C | ≤ -4.2 |
| U53A G68U C76G U130A C132U G136A A142U | ≤ -4.2 |
| C54A U55A A106G G141A G143C C149G | ≤ -4.2 |
| U53C A73G G84A U109G G140C | ≤ -4.2 |
| C54A U61A G67A C75A G80U C96A | ≤ -4.2 |
| U53A C93U G140C | ≤ -4.2 |
| U53A U130G A142C | -0.549 |

| Variant | polymerase ribozyme fitness (log ratio) |
| --- | --- |
| U53A C93A U101C C125U C132U G140U A147C | ≤ -4.2 |
| C54A G94C A138C | ≤ -4.2 |
| U53G C96U C114U A120C A147U | -3.11 |
| C54U A107U U111G U135A U146C | -4 |
| C54G C85A | -3.85 |
| C54U C69A U144C | -3.89 |
| C54A G94U G140A | ≤ -4.2 |
| U53A U109G | -0.777 |
| C54U A97C | -0.294 |
| C54G U61C G84U C87U G88A A119U | ≤ -4.2 |
| C54A U55A U56A C96A G141C | -4.08 |
| C54G C116U | -1.08 |
| C54A G88C | -3.99 |
| C54G U55A G94A C132U | ≤ -4.2 |
| U53A G83C G94U A97G U101G U102G C116A G140U | ≤ -4.2 |
| U53A G80U C96A G143A U146C C149G | ≤ -4.2 |
| C54G G83C A97U A98U | -2.8 |
| C54A C79A C87U U144C A150G U151A | ≤ -4.2 |
| C54A C57A C87A A89G | ≤ -4.2 |
| C54A G136A | -0.852 |
| U53A U101G C125A | -0.788 |
| U53A U55A G83U C123A G128U A147U | ≤ -4.2 |
| C54A C79U C93A A113U U127G | ≤ -4.2 |
| C54G C75U C95U A147C | -3.31 |

| Variant | polymerase ribozyme fitness (log ratio) |
| --- | --- |
| U53G A97U | -2.68 |
| U53G A97C | -1.81 |
| U53A U55A G62C | -2.35 |
| U53A G86A | -2.07 |
| C54G C96G G126A | -2.33 |
| U53A C118G | -2.5 |
| U53A G58A | -0.0533 |
| U53A G58C | -1.52 |
| C54A G92U U135G | -4.08 |
| C54G A97U A106C | -2.99 |
| C54A A64G U111C G133U G140A G143A | ≤ -4.2 |
| U53C G84A C95U | -0.536 |
| U53C C93G C99G C118A G126A U146G | ≤ -4.2 |
| C54U A91C | ≤ -4.2 |
| C54U A91U | ≤ -4.2 |
| C54G G80C G81A C85U C129A U135C | ≤ -4.2 |
| U53A G58A A73U C75A A89U G92U A110U G126U G140A A147U | ≤ -4.2 |
| U53A G83C | -2.61 |
| U53A G58A G71A G126A U135G | ≤ -4.2 |
| U53A G81U G88A A115G A147U | ≤ -4.2 |
| U53A U56A | -2.45 |
| U53A U56G | -1.11 |
| C54A G67U | -4 |
| U53A C93A C105A A119G | ≤ -4.2 |

| Variant | polymerase ribozyme fitness (log ratio) |
| --- | --- |
| U53A U56G C57U A73G C87A G143A | ≤ -4.2 |
| C54U C75G G81C U127A | ≤ -4.2 |
| U53A G83A C118A | -1.88 |
| U53G G94U A98C | -2.12 |
| C54A G92A G126U | -3.3 |
| C54U C57G C87A G128A | ≤ -4.2 |
| U53G A115C G143A | -4.06 |
| C54G G65A C79U C85G A91U G136C | ≤ -4.2 |
| C54A C93U | -2.59 |
| C54U C76A | -0.561 |
| C54G G65U A73U C87A A106U G140A G143A | ≤ -4.2 |
| U53G G84U C96G | ≤ -4.2 |
| U53A C85A G124U G143C U146C | ≤ -4.2 |
| U53A U55A C57A C85G A122G | -2.51 |
| U53A C96A | -2.37 |
| U53A C96U | -1.85 |
| C54A C69U U144C | -3.51 |
| C54G C103A G140C | ≤ -4.2 |
| U53G C93A C95A A97U A98C G100U U130G G140U | ≤ -4.2 |
| C54G U109C C116U C131U A147U | -1.86 |
| C54A C149G | -3.71 |
| U53A U56A G70U C93U G141C | ≤ -4.2 |
| C54U C75G G80C U82A C87U C99G | ≤ -4.2 |
| C54A G70U G94A | -4.02 |

| Variant | polymerase ribozyme fitness (log ratio) |
| --- | --- |
| C54A U55A A60U | -1.37 |
| C54G U82G | -0.687 |
| C54G U82A | -1.98 |
| C54U A138G | -3.19 |
| U53G U90G G100A G124A U144C | ≤ -4.2 |
| U53C U78G U127C U148C | ≤ -4.2 |
| C54A U104A C131U | -2.14 |
| U53A C85U | -1.4 |
| U53G G94C A115U | -3.49 |
| C54A C105U | -0.396 |
| U53A G80A U109A C123U A142G | -3.11 |
| U53A U55A C79U A98U | ≤ -4.2 |
| C54U C76U C93G A150G | -4.08 |
| C54G C76G A89U C93A A113G C116U | ≤ -4.2 |
| C54G A66C G70C G100C | ≤ -4.2 |
| C54U C57A C75U A91G | -3.62 |
| C54G U55A C108G A122U | ≤ -4.2 |
| C54A U78G U101G A107G C118A U130A | ≤ -4.2 |
| C54A G58A G94A A98U | -0.552 |
| C54G G86A A120U | -2.8 |
| C54U A110C C114U A121U | -4.15 |
| C54A U127C | -2.28 |
| C54G G59U U135C A138U | ≤ -4.2 |
